Assay results: the supplement of paper PMC7877785
± gives the uncertainty stated by the source.

Assay: self-splicing fitness, log relative to wild type (ln ratio); higher = more splicing; Tetrahymena group I intron in knt gene, E. coli kanamycin selection, DiMSum; sequences stand for … in CUCUCU…GGAGGGAAAAGUUAUCAGGCAUGCACCUGGUAGCUAGUCUUUAAACCAAUAGAUUGCAUCGGUUUAAAAGGCAAGACCGUCAAAUUGCGGGAAAGGGGUCAACAGCCGUUCAGUACCAAGUCUCAGGGGAAACUUUGAGAUGGCCUUGCAAAGGGUAUGGUAAUAAGCUGACGGACAUGGUCCUAACCACGCAGCCAAGUCCUAAGUCAACAGAUCUUCUGUUGAUAUGGAUGCAGUUCACAGACUAAAUGUCGGUCGGGGAAGAUGUAUUCUUCUCAUAAGAUAUAGUCGGACCUCUCCUUAAUGGGAGCUAGCGGAUGAAGUGAUGCAACACUGGAGCCGCUGGGAACUAAUUUGUAUGCGAAAGUAUAUUGAUUAGUUUUGGAGUACUCGUGGUCG
Summary of the method: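 Library with all eight P1ex-region intron nucleotides randomised, intron inside the knt kanamycin-resistance gene on pET-22b(+), in E. coli BL21(DE3). Cells grew overnight at 37°C or 30°C on LB agar with or without 25 μg/mL kanamycin (plus 100 μg/mL carbenicillin, 50 μM IPTG, 0.2% rhamnose), in six replicate transformations. Pooled colonies were amplicon-sequenced on Illumina HiSeq 2500. DiMSum fitness is the error-weighted combination of wild-type-normalised replicate fold changes, kanamycin versus none.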

Sequence | self-splicing fitness (ln) (30 °C) | self-splicing fitness (ln) (37 °C)
GUGCAGCAAUAUUACGAGCU | -1.45 ± 0.062 | -0.353 ± 0.082
GUGCAGCAAUAUUACGAGGA | -3.01 ± 0.2 | -1.74 ± 0.29
GUGCAGCAAUAUUACGAGUA | -2.62 ± 0.34 | -1.8 ± 0.21
GUGCAGCAAUAUUACGAUCU | -0.791 ± 0.052 | -0.194 ± 0.062
GUGCAGCAAUAUUACGAUUA | -1.38 ± 0.13 | -0.611 ± 0.12
GUGCAGCAAUAUUACGCAGA | -2.57 ± 0.46 | -1.53 ± 0.23
GUGCAGCAAUAUUACGCGAA | -1.62 ± 0.1 | -0.106 ± 0.085
GUGCAGCAAUAUUACGCGCG | -2.41 ± 0.13 | -1.98 ± 0.16
GUGCAGCAAUAUUACGCGUA | -1.62 ± 0.13 | -0.278 ± 0.1
GUGCAGCAAUAUUACGCGUU | -2.7 ± 0.11 | -1.18 ± 0.1
GUGCAGCAAUAUUACGGAAA |  | -1.63 ± 0.34
GUGCAGCAAUAUUACGGAGU | -3.05 ± 0.12 | -2.07 ± 0.11
GUGCAGCAAUAUUACGGCCC | -0.475 ± 0.11 | -0.704 ± 0.17
GUGCAGCAAUAUUACGGGCU | -1.95 ± 0.15 | -1.2 ± 0.12
GUGCAGCAAUAUUACGUAAG | 0.0919 ± 0.087 | -0.00974 ± 0.1
GUGCAGCAAUAUUACGUCCA | -1.53 ± 0.28 | -0.793 ± 0.27
GUGCAGCAAUAUUACGUGCA | -3.19 ± 0.15 | -2.41 ± 0.17
GUGCAGCAAUAUUACGUGGG | -2.86 ± 0.11 | -2.01 ± 0.11
GUGCAGCAAUAUUACGUUAA | -1.75 ± 0.13 | -1.25 ± 0.13
GUGCAGCAAUAUUACGUUCC | -2.72 ± 0.18 | -1.05 ± 0.25
GUGCAGCAAUAUUACGUUGG | -2.58 ± 0.084 | -1.56 ± 0.097

Sequence | self-splicing fitness (ln) (30 °C) | self-splicing fitness (ln) (37 °C)
GUGGAGCAAUAUUACGACGA |  | -1.12 ± 0.46
GUGGAGCAAUAUUACGAGUA |  | -1.96 ± 0.44
GUGGAGCAAUAUUACGCUUG | -1.21 ± 0.16 | -1.25 ± 0.21
GUGGAGCAAUAUUACGGCGA | -0.352 ± 0.17 | -1.43 ± 0.23
GUGGAGCAAUAUUACGGCUU | -1.6 ± 0.28 | 
GUGGAGCAAUAUUACGGGCA | -2.2 ± 0.28 | -1.76 ± 0.45
GUGGAGCAAUAUUACGUAAC | -0.784 ± 0.18 | -0.991 ± 0.28
GUGGAGCAAUAUUACGUACG |  | -2.05 ± 0.23
GUGGAGCAAUAUUACGUUUG | -3.31 ± 0.26 | -2.79 ± 0.3
GUGUAGCAAUAUUACGAAAC | -3.2 ± 0.41 | -1.89 ± 0.34
GUGUAGCAAUAUUACGAUCU | -1.04 ± 0.1 | 0.329 ± 0.11
GUGUAGCAAUAUUACGAUUA | -1.58 ± 0.27 | 0.0491 ± 0.2
GUGUAGCAAUAUUACGCACA |  | -1.5 ± 0.2
GUGUAGCAAUAUUACGCAGU | -3.25 ± 0.21 | -2.46 ± 0.23
GUGUAGCAAUAUUACGCCAA |  | -1.85 ± 0.34
GUGUAGCAAUAUUACGCCAG |  | -1.12 ± 0.5
GUGUAGCAAUAUUACGCCGU | -1.25 ± 0.17 | -1.67 ± 0.36
GUGUAGCAAUAUUACGCGAA | -2.15 ± 0.17 | -0.555 ± 0.14
GUGUAGCAAUAUUACGCGUU |  | -0.621 ± 0.17
GUGUAGCAAUAUUACGCUAA | -1.77 ± 0.42 | -1.01 ± 0.3
